Assay results as given in US20140301945A1 (NEURIMMUNE, published 2014).

B1: NI-204.10D12 (antibody, V domains shown)
VH: EVQLVESGGDLVRPGGSLRLSCVASGFTFSNYWMHWVRQAPGQRPVWVSRTNTDGRNTAYADYAKGRFTISRDNAKSTLYLQLNSLRAEDTAVYFCARLRRNVADQITHNYYMDVWGKGTLVTVSS
VL: EIVLTQSPGSLAVSLGERATINCKSSQTVLYNNKNYLAWYQQKPGQPPKLLISWASSRESGVPDRFSGSGSGTDFTLTISSLQAEDVAVYYCQHYYGTPVTFGGGTKVEIK
B2: NI-204.9F6 (antibody, human IgG1, V domains shown)
VH: EVQLVESGGGLVQPGGSLRLSCAVSGFTFDTFAMSWVRQAPGKGLEWVSAITASSSKTYYADSVKGRFTISRDNSRNTVYLRLSSLRADDTAVYFCARPKGAHSGLYIESAFDLWGPGTMVTVSS
VL: SYVLTQPPSVSVSAGQTASITCSADMLGDTYVSWYQKRPGQSPVLLIYQDSKRPSEIPERFSGSSSEDTATLTITGTQALDEAAYYCQVWDRRTTTYVFGPGTEVTVL
notes: also called NI-209.9F6
B3: NI-204.12G7 (antibody, human IgG1, V domains shown)
VH: EVQLVESGAEVKKPGASVTLSCKASGYTFTAYYIHWVRQAREQGLEWMGVINPSTGTTFYAQNFPDRVSVTRDTSTSTVFMELHNLKSEDTAVYYCARAISEHGSGSYSPYYWGQGTLVTVSS
VL: SYVLTQPPSVSVSLGQMAAITCSGEALPKKYGYWYQQKPGQVPVLLIYRDVERPSGVPDRFSGSSSGTMVTLTISGVQAEDEADYYCLSADSSGTWVFGGGTKLTVL
B4: NI-204.10A8 (antibody, human IgG1, V domains shown)
VH: EVQLVESGAEVKEPGSSVRVSCKTSGGSFNRHVITWVRQAPGQGLEWMGEIIPFFGTPKYAPKFQGRVTIIADASTSTFFLDVKSLTSEDTALYFCWIVVVSVVQRREDFWGQGILVTVSS
VL: EIVLTQSPSSLSASVGDTVTITCRSSQNISNYLSWFQHKPGKAPRILVYAASTLQTGVPSRFSGRGSGTIFTLSITSLQSEDYATYYCQQNDKIPRTFGQGTKVEIK
B5: NI-204.7G5 (antibody, human IgG1, V domains shown)
VH: EVQLVESGGGVVQAGGSLRLSCVASGLTFSSYGMHWVRQAPGKGLEWVAVISYDGRSKFYADSVKGRFTISRDNSKNTLYLQMNSLRAEDAAVYYCANARVRDACSGTRCDKFGFYMDVWGKGTTVTVSS
VL: SYVLTQPPSVSVSPGQTARITCSGDALPKKYAYWYQQKSGQAPVLVIYEDIKRPSGIPERFSGSSSGTMATLTISGAQVEDEGDYYCYSADRSGNRWAFGGGTKLTVL
B6: NI-204.7B3 (antibody, human IgG1, V domains shown)
VH: EVQLVQSGGDIVQSGGSLRLSCAASGFVFSSNWMHWVRQRPGKGLEWISLINVDGRTTKYADSVKGRFTISRDNAKKTVYLQMDSLRAEDTAVYYCVKVEGLNWGPGTLVTVSS
VL: LPVLTQPPSVSVSPGQTARITCSGDELSKQYAYWYQKKSGQAPVMVVNEDTKRPPGIPERFSGSSSGTTSTLTISGVQAEDEADYYCQSADITGSWVFGGGTKLTVL
B7: NI-204.34A3 (antibody, human IgG1, V domains shown)
VH: EVQLVESGGGLVKPGGSLRVSCDVSGQRLSKAWMNWVRQTPTRGLEWVGLIKRDADGGTTEFAAPVEGRFTISRDDIQNTMTLHMTRLRVDDTGVYYCVAGDIGCIKENCRWGEGTTVTVSS
VL: SYELTQPPSVSVSPGQTARITCSGDALPTKFAFWYQQKSGQAPVLVIYEDDKRPSGIPQRFSGSSSGTTATLTISGAQEEDDADYYCYSKDSTNVERVFGTGTKLSVL
B8: NI-204.25H3 (antibody, human IgG1, V domains shown)
VH: QVQLQESGPGLVKPSETLSLTCTVSGGSISSSYWSWIRQPPGQGLEWIGYIYYSGNTYYNPSLKSRVTISIDTSKTQFSLNLTSVSAADTAVYYCARDGIPGAIGMDVWGQGTTVTVSS
VL: QSVLTQPPSVSAAPGQKVNISCSGSSSNIGNNYVSWYQRLPGTAPKLLIYDNNKRPSGIPDRFSGSKSGTSATLGITGLQTGDGADYYCATWDKSLIAVVFGGGTKLTVL
B9: NI-204.11F11 (antibody, human IgG1, V domains shown)
VH: EVQLVESGGGLVKPGGSLRLSCAASGLPFSKAWMSWVRQAPGKGLEWVGRIKSQADGGAIDYATSVNGRFTITRDDSKNTLYLQMTSLKTEDTAVYYCTPGIILRFLEGTLRGMDVWGQGTTVTVSS
VL: EIVLTQSPPTLSLSPGERATLSCRASQTVSKYLAWYQQKPGQAPRLLVYDTSNRAIGIPPRFSGSGSGTDFTLTISTLEPEDFALYYCQQRSNWPPTFGQGTRLEIK
B10: NI-204.67E12 (antibody, human IgG1, V domains shown)
VH: EVQLLESGGGLIRPGGSLRLSCAASGFTFSNYAMGWVRQAPGKGLEWVSAISGNGGSTYYGGSVKGRFTISRDKSKNTLYLQMNNLRADDTAVYFCAKLEAVAPTLTLRYFKHWGKGTLVTVSS
VL: DIQMTQSPSTLSASVGDRVTITCRASQSISRWLAWYQQRPGRAPDLLIYDASNLESGVPSRFSGSGSGTEFTLTISSLQPGDFATYYCQQYYSYVYTFGQGTKLEIK
B11: NI-204.6H1 (antibody, human IgG1, V domains shown)
VH: QVQLQQWGAGRLRPSETLSLTCAVYGGSFNGYARTWIRQPPGKGLEWIGEIDHRENTNYNPSLKSRVTMSVDTSKNQFSLRLNSVTAADTAVYFCARGQKNAKDQHEGFRYWGRGTLVTVSS
VL: SYELTQPPSVSVSPGQTARITCSGDALPKQFAYWYQQKSGQAPKLVIFKDTERPSGIPERFSASSSGTKATLTISGVQAEDEADYYCQSADRTATSWVFGGGTKLTVL

Key:
[1] = biological target: T1, recombinant human SOD1 (biomol, Hamburg) (human, UniProt P00441 2-154, limits assumed); assay: direct ELISA, recombinant SOD1 coated at 20 µg/ml
T1 construct: Bought protein; also called recombinant human superoxide dismutase 1; Recombinant SOD1
Description: (§1) Primary antibodies were diluted to the indicated concentrations and incubated 1 h at RT. Binding was determined using either a donkey anti-human IgG Fcγ-specific antibody conjugated with HRP or a goat anti-mouse IgG (H+L)-specific antibody conjugated with HRP, followed by measurement of HRP activity in a standard colorimetric assay.
(§2) The EC₅₀ of the different human-derived SOD1-specific antibodies for native human SOD1 dimers, denatured/oxidized human SOD1 and recombinant SOD1 was determined by direct ELISA with coating of the different SOD1 species at 20 μg/ml concentration.

[2] = biological target: T2, in vitro misfolded/aggregated human SOD1 (metal-catalyzed oxidation) (human, UniProt P00441 2-154, oxidized by metal-catalyzed oxidation (4 mM ascorbic acid, 0.2 mM CuCl2, 48 hours at 37 C); residues not stated); assay: direct ELISA, oxidized human SOD1 coated at 20 µg/ml
T2 construct: also called Oxidized SOD1; in vitro aggregated human SOD1 dimers

[3] = biological target: T1, recombinant human SOD1 (biomol, Hamburg); assay: direct ELISA, recombinant human SOD1 coated at 0.1 µg/ml
Description: (§3) Binding was determined using either a goat anti-mouse IgG antibody (Jackson immunoResearch, Newmarket, UK) or a donkey anti-human IgGγ (Jackson immunoResearch, Newmarket, UK) antibody conjugated with HRP, followed by measurement of HRP activity in a standard colorimetric assay. The EC₅₀ values were estimated by a non-linear regression using GraphPad Prism (San Diego, USA) software.

[4] = biological target: wild type SOD1 from human erythrocytes (physiological dimers) (human) (UniProt P00441); assay: direct ELISA, native human SOD1 dimers coated at 20 µg/ml; Native SOD1 (not denatured, oxidized or recombinant)
[5] = biological target: T1, recombinant human SOD1 (biomol, Hamburg); assay: direct ELISA, recombinant human SOD1 coated at 1 µg/ml
Description: as §3

bovine serum albumin = biological target: T3, bovine serum albumin (bovine, UniProt P02769 25-607); assay: direct ELISA, BSA coated at 3.3 µg/ml
T3 construct: Control antigen in ELISA; also called BSA
Excerpt: Non-specific binding sites were blocked for 2 hr at RT with PBS containing 2% BSA (Sigma-Aldrich, Buchs, Switzerland) and 0.5% Tween20.

[6] = biological target: T1, recombinant human SOD1 (biomol, Hamburg); assay: direct ELISA, recombinant human SOD1 coated at 3.3 µg/ml
Description: Binding was determined using a donkey anti-human IgGγ antibody (Jackson immunoResearch, Newmarket, UK) conjugated with HRP, followed by measurement of HRP activity in a standard colorimetric assay.
The EC₅₀ values were estimated by a non-linear regression using GraphPad Prism (San Diego, USA) software.

[7] = biological target: T2, in vitro misfolded/aggregated human …; assay: direct ELISA, in vitro aggregated human SOD1 coated at 34 µg/ml
Description: (§4) Non-specific binding sites were blocked for 1 hr at RT with PBS/0.1% Tween®-20 containing 2% BSA (Sigma-Aldrich, Buchs, Switzerland). […] Binding was determined using either a goat anti-mouse IgG antibody (Jackson immunoResearch, Newmarket, UK) or a donkey anti-human IgGγ antibody (Jackson immunoResearch, Newmarket, UK) conjugated with HRP, followed by measurement of HRP activity in a standard colorimetric assay. EC₅₀ values were estimated by a non-linear regression using GraphPad Prism software (San Diego, USA).

[8] = biological target: T4, in vitro denatured human SOD1 (human, UniProt P00441 2-154); assay: direct ELISA, denatured human SOD1 coated at 20 µg/ml
T4 construct: also called Denatured SOD1; unfolded SOD1
Description: as §1, §2

[9] = biological target: T1, recombinant human SOD1 (biomol, Hamburg); assay: direct ELISA, recombinant human SOD1 coated at 30 µg/ml
Description: as §3

[10] = biological target: T1, recombinant human SOD1 (biomol, Hamburg); assay: direct ELISA, recombinant human SOD1 coated at 10 µg/ml
Description: as §3

[11] = biological target: T5, wild type SOD1 from human erythrocytes (physiological dimers) (human, UniProt P00441 2-154); assay: direct ELISA, native human SOD1 dimers coated at 20 µg/ml
T5 construct: Purified from human erythrocytes (Sigma-Aldrich); homodimer; control incubated in Tris acetate buffer without oxidants; also called Native SOD1; native human SOD1 dimers
Description: as §1, §2

[12] = biological target: T1, recombinant human SOD1 (biomol, Hamburg); assay: direct ELISA, recombinant human SOD1 coated at 0.1 µg/ml; remark: listed apart in the source
[13] = biological target: T5, wild type SOD1 from human erythrocytes …; assay: direct ELISA, physiological human SOD1 dimers coated at 34 µg/ml
Description: as §4

[14] = biological target: T1, recombinant human SOD1 (biomol, Hamburg); assay: direct ELISA, recombinant human SOD1 coated at 10 µg/ml; remark: listed apart in the source
[15] = biological target: T1, recombinant human SOD1 (biomol, Hamburg); assay: direct ELISA, recombinant human SOD1 coated at 1 µg/ml; remark: listed apart in the source
Description: as §3

T3 sequence (P02769 25-607 limits assumed): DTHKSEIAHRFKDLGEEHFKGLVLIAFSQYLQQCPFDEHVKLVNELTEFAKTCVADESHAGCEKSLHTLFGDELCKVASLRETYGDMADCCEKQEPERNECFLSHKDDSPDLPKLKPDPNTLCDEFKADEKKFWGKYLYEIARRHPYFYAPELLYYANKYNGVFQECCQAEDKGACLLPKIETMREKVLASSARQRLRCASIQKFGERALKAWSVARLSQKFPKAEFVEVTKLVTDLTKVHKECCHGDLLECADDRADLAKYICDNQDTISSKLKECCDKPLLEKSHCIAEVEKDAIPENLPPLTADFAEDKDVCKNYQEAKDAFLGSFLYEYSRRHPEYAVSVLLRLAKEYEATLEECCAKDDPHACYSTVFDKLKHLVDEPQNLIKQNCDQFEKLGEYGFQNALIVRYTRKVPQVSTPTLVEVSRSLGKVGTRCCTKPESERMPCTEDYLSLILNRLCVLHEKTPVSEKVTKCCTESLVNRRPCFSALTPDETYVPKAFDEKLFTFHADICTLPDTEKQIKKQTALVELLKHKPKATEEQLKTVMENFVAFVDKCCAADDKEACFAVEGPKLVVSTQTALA
T4 sequence (P00441 2-154 limits assumed): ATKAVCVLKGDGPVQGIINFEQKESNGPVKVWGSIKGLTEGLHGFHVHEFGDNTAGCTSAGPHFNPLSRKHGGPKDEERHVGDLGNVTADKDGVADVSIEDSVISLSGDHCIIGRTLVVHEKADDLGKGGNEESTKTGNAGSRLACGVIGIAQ
T2 sequence (P00441 2-154 limits assumed): as above
T5 sequence (P00441 2-154 limits assumed): as above
T1 sequence (P00441 2-154 limits assumed): as above
Sequence of wild type SOD1 from human erythrocytes (physiological dimers) (human) (P00441 2-154 limits assumed): as above

| Binder | EC50 [1] | EC50 [2] | EC50 [3] | EC50 [4] | EC50 [5] | binding result (bovine serum albumin) | EC50 [6] | EC50 [7] | EC50 [8] | EC50 [9] | EC50 [10] | EC50 [11] | EC50 [12] | EC50 [13] | EC50 [14] | EC50 [15] |
| --- | --- | --- | --- | --- | --- | --- | --- | --- | --- | --- | --- | --- | --- | --- | --- | --- |
| B1 | 7 nM | 6 nM | 606 nM | > 100 nM | 81.4 nM | no binding | 10 nM | 15 nM | 5 nM | 35 nM | 24 nM | – | – | – | – | – |
| B2 | > 100 nM | > 100 nM | 451 nM | – | 134 nM | no binding | 105 nM | 127 nM | – | 117 nM | 148 nM | > 100 nM | – | – | – | – |
| B3 | 0.06 nM | 0.6 nM | 75.9 nM | – | 3.1 nM | no binding | 0.4 nM | 3.6 nM | 0.07 nM | 0.36 nM | 0.39 nM | > 40 nM | – | – | – | – |
| B4 | 1 nM | > 100 nM | 95.9 nM | – | 18.7 nM | no binding | 2.7 nM | 29.5 nM | > 100 nM | 2.2 nM | 2.1 nM | > 100 nM | 96 nM | 19.1 nM | 2 nM | 19 nM |
| B5 | 13 nM | 5 nM | – | – | – | – | – | – | 60 nM | – | – | > 100 nM | – | – | – | – |
| B6 | 42 nM | > 100 nM | – | – | – | – | – | – | 50 nM | – | – | > 100 nM | – | – | – | – |
| B7 | 2 nM | 12 nM | – | – | – | – | – | – | 10 nM | – | – | > 100 nM | – | – | – | – |
| B8 | 1 nM | 2 nM | – | – | – | – | – | – | 4 nM | – | – | > 100 nM | – | – | – | – |
| B9 | 0.5 nM | 0.4 nM | – | – | – | – | – | – | 0.3 nM | – | – | 50 nM | – | – | – | – |
| B10 | 0.2 nM | 0.06 nM | – | – | – | – | – | – | 0.08 nM | – | – | 0.1 nM | – | – | – | – |
| B11 | 2 nM | 4 nM | – | – | – | – | – | – | 5 nM | – | – | > 100 nM | – | – | – | – |
